The source of these data is the Human Domainome abundance scans (Beltran et al. 2025).

± gives the uncertainty stated by the source.

B1: Histone-lysine N-methyltransferase 2A, residues 1148 to 1194; numbered along this chain, Q03164 (parent)
chain: KGRRSRRCGQCPGCQVPEDCGVCTNCLDKPKFGGRNIKKQCCKMRKC

The variants in the series derive from B1. Kind of series: abundance fitness (aPCA) (normalised: wild type 0, dead -1); higher = more abundant; growth selection in yeast, the domain comes from the species named. Particulars: Homo sapiens.
KGRRSRRCGQCPGCQVPEDQGVCTNCLDKPKFGGRNIKKQCCKMRKC [C20Q]: the abundance fitness was -0.866 ± 0.17.

Regarding KGRRSRRCGQCPGCQVPEDFGVCTNCLDKPKFGGRNIKKQCCKMRKC [C20F], the abundance fitness is -1.03 ± 0.2.

With KGRRSRRCGQCPGCQVPEDHGVCTNCLDKPKFGGRNIKKQCCKMRKC [C20H], the abundance fitness is -0.97 ± 0.28.

KGRRSRRCGQCPGCQVPEDEGVCTNCLDKPKFGGRNIKKQCCKMRKC [C20E]: the abundance fitness is -0.736 ± 0.16.

On to KGRRSRRCGQCPGCQVPEDTGVCTNCLDKPKFGGRNIKKQCCKMRKC [C20T], for which the abundance fitness is -0.753 ± 0.13.

Turning to KGRRSRRCGQCPGCQVPEDMGVCTNCLDKPKFGGRNIKKQCCKMRKC [C20M], the abundance fitness was -0.925 ± 0.17.

As to KGRRSRRCGQCPGCQVPEDYGVCTNCLDKPKFGGRNIKKQCCKMRKC [C20Y], the abundance fitness is -0.994 ± 0.15.

Regarding KGRRSRRCGQCPGCQVPEDKGVCTNCLDKPKFGGRNIKKQCCKMRKC [C20K], the abundance fitness is -0.594 ± 0.15.

On to KGRRSRRCGQCPGCQVPEDAGVCTNCLDKPKFGGRNIKKQCCKMRKC [C20A], for which the abundance fitness was -0.961 ± 0.13.

With KGRRSRRCGQCPGCQVPEDDGVCTNCLDKPKFGGRNIKKQCCKMRKC [C20D], the abundance fitness is -0.782 ± 0.21.

In the case of KGRRSRRCGQCPGCQVPEDRGVCTNCLDKPKFGGRNIKKQCCKMRKC [C20R], the abundance fitness was -0.654 ± 0.11.

Turning to KGRRSRRCGQCPGCQVPEDSGVCTNCLDKPKFGGRNIKKQCCKMRKC [C20S], the abundance fitness is -0.832 ± 0.12.

For KGRRSRRCGQCPGCQVPEDPGVCTNCLDKPKFGGRNIKKQCCKMRKC [C20P], the abundance fitness is -0.947 ± 0.21.

KGRRSRRCGQCPGCQVPEDIGVCTNCLDKPKFGGRNIKKQCCKMRKC [C20I]: the abundance fitness is -0.895 ± 0.23.

Regarding KGRRSRRCGQCPGCQVPEYCGVCTNCLDKPKFGGRNIKKQCCKMRKC [D19Y], the abundance fitness is -0.859 ± 0.21.

Consider KGRRSRRCGQCPGCQVPECCGVCTNCLDKPKFGGRNIKKQCCKMRKC [D19C], for which the abundance fitness is -0.977 ± 0.2.

For KGRRSRRCGQCPGCQVPEGCGVCTNCLDKPKFGGRNIKKQCCKMRKC [D19G], the abundance fitness is -0.96 ± 0.13.

KGRRSRRCGQCPGCQVPEKCGVCTNCLDKPKFGGRNIKKQCCKMRKC [D19K]: the abundance fitness was -0.898 ± 0.15.

For the variant KGRRSRRCGQCPGCQVPEWCGVCTNCLDKPKFGGRNIKKQCCKMRKC [D19W], the abundance fitness is -0.861 ± 0.2.

In the case of KGRRSRRCGQCPGCQVPERCGVCTNCLDKPKFGGRNIKKQCCKMRKC [D19R], the abundance fitness was -0.775 ± 0.12.

As for KGRRSRRCGQCPGCQVPEFCGVCTNCLDKPKFGGRNIKKQCCKMRKC [D19F], the abundance fitness is -1.02 ± 0.21.

In the case of KGRRSRRCGQCPGCQVPEICGVCTNCLDKPKFGGRNIKKQCCKMRKC [D19I], the abundance fitness is -1.24 ± 0.42.

On to KGRRSRRCGQCPGCQVPEPCGVCTNCLDKPKFGGRNIKKQCCKMRKC [D19P], for which the abundance fitness is -0.935 ± 0.16.

As for KGRRSRRCGQCPGCQVPEECGVCTNCLDKPKFGGRNIKKQCCKMRKC [D19E], the abundance fitness was -0.962 ± 0.15.

Regarding KGRRSRRCGQCPGCQVPENCGVCTNCLDKPKFGGRNIKKQCCKMRKC [D19N], the abundance fitness is -0.624 ± 0.18.

Regarding KGRRSRRCGQCPGCQVPEHCGVCTNCLDKPKFGGRNIKKQCCKMRKC [D19H], the abundance fitness is -0.677 ± 0.28.

Take KGRRSRRCGQCPGCQVPEMCGVCTNCLDKPKFGGRNIKKQCCKMRKC [D19M]: the abundance fitness was -0.339 ± 0.15.

With KGRRSRRCGQCPGCQVPEQCGVCTNCLDKPKFGGRNIKKQCCKMRKC [D19Q], the abundance fitness was -1.05 ± 0.19.

For KGRRSRRCGQCPGCQVPEVCGVCTNCLDKPKFGGRNIKKQCCKMRKC [D19V], the abundance fitness was -0.901 ± 0.11.

In the case of KGRRSRRCGQCPGCQVPEACGVCTNCLDKPKFGGRNIKKQCCKMRKC [D19A], the abundance fitness was -0.797 ± 0.11.

In the case of KGRRSRRCGQCPGCQVPELCGVCTNCLDKPKFGGRNIKKQCCKMRKC [D19L], the abundance fitness was -0.878 ± 0.11.

In the case of KGRRSRRCGQCPGCQVPETCGVCTNCLDKPKFGGRNIKKQCCKMRKC [D19T], the abundance fitness is -0.865 ± 0.16.

With KGRRSRRCGQCPGCQVPEDCMVCTNCLDKPKFGGRNIKKQCCKMRKC [G21M], the abundance fitness was -0.278 ± 0.13.

As for KGRRSRRCGQCPGCQVPEDCTVCTNCLDKPKFGGRNIKKQCCKMRKC [G21T], the abundance fitness is -0.894 ± 0.16.

For KGRRSRRCGQCPGCQVPEDCSVCTNCLDKPKFGGRNIKKQCCKMRKC [G21S], the abundance fitness was -0.542 ± 0.096.

Regarding KGRRSRRCGQCPGCQVPEDCPVCTNCLDKPKFGGRNIKKQCCKMRKC [G21P], the abundance fitness is -0.857 ± 0.14.

In the case of KGRRSRRCGQCPGCQVPEDCDVCTNCLDKPKFGGRNIKKQCCKMRKC [G21D], the abundance fitness was -0.872 ± 0.15.

With KGRRSRRCGQCPGCQVPEDCEVCTNCLDKPKFGGRNIKKQCCKMRKC [G21E], the abundance fitness is -0.677 ± 0.16.

Turning to KGRRSRRCGQCPGCQVPEDCYVCTNCLDKPKFGGRNIKKQCCKMRKC [G21Y], the abundance fitness was -0.769 ± 0.19.

In the case of KGRRSRRCGQCPGCQVPEDCLVCTNCLDKPKFGGRNIKKQCCKMRKC [G21L], the abundance fitness is -0.626 ± 0.098.

Turning to KGRRSRRCGQCPGCQVPEDCFVCTNCLDKPKFGGRNIKKQCCKMRKC [G21F], the abundance fitness was -0.684 ± 0.2.

Regarding KGRRSRRCGQCPGCQVPEDCHVCTNCLDKPKFGGRNIKKQCCKMRKC [G21H], the abundance fitness was -0.375 ± 0.19.

In the case of KGRRSRRCGQCPGCQVPEDCWVCTNCLDKPKFGGRNIKKQCCKMRKC [G21W], the abundance fitness is -0.88 ± 0.15.

Regarding KGRRSRRCGQCPGCQVPEDCCVCTNCLDKPKFGGRNIKKQCCKMRKC [G21C], the abundance fitness was -0.805 ± 0.16.

Take KGRRSRRCGQCPGCQVPEDCQVCTNCLDKPKFGGRNIKKQCCKMRKC [G21Q]: the abundance fitness is -0.918 ± 0.17.

In the case of KGRRSRRCGQCPGCQVPEDCIVCTNCLDKPKFGGRNIKKQCCKMRKC [G21I], the abundance fitness was -0.995 ± 0.24.

As for KGRRSRRCGQCPGCQVPEDCVVCTNCLDKPKFGGRNIKKQCCKMRKC [G21V], the abundance fitness is -0.7 ± 0.1.

Regarding KGRRSRRCGQCPGCQVPEDCNVCTNCLDKPKFGGRNIKKQCCKMRKC [G21N], the abundance fitness is -0.767 ± 0.27.

Take KGRRSRRCGQCPGCQVPEDCRVCTNCLDKPKFGGRNIKKQCCKMRKC [G21R]: the abundance fitness is -0.416 ± 0.09.

Consider KGRRSRRCGQCPGCQVPEDCGVFTNCLDKPKFGGRNIKKQCCKMRKC [C23F], for which the abundance fitness is -1 ± 0.19.

For KGRRSRRCGQCPGCQVPEDCGVHTNCLDKPKFGGRNIKKQCCKMRKC [C23H], the abundance fitness was -1.07 ± 0.26.

On to KGRRSRRCGQCPGCQVPEDCGVATNCLDKPKFGGRNIKKQCCKMRKC [C23A], for which the abundance fitness is -0.675 ± 0.1.

In the case of KGRRSRRCGQCPGCQVPEDCGVGTNCLDKPKFGGRNIKKQCCKMRKC [C23G], the abundance fitness was -0.648 ± 0.088.

Turning to KGRRSRRCGQCPGCQVPEDCGVDTNCLDKPKFGGRNIKKQCCKMRKC [C23D], the abundance fitness is -0.516 ± 0.13.

KGRRSRRCGQCPGCQVPEDCGVETNCLDKPKFGGRNIKKQCCKMRKC [C23E]: the abundance fitness was -0.543 ± 0.11.
